Usually EC50 stands for the midpoint of the concentration-response curve. A higher EC50 goes with a less potent agent. The term IC50 denotes the concentration that gives 50% inhibition. A lower IC50 goes with higher potency. One may read the Kd as the equilibrium constant for the complex coming apart. Low values mean tighter binding, high ones weaker binding. One may read the koff as the rate constant with which the complex falls apart. A high value points to a short-lived complex. Broadly, the kon is the second-order rate constant of association. The low end stands for slower complex formation, the high end for faster complex formation. The term t½ denotes the time in which the quantity being followed falls by half.

Experiment [1] deals with T1, human PILRA, G78 variant, ectopically expressed on 293 cells (human, UniProt Q9UKJ1 20-303).
T1 construct: the cells are labelled G78; also called hA G78 OE; hA
T1 sequence (Q9UKJ1 other isoform, or with tags, fused parts or gaps mutant): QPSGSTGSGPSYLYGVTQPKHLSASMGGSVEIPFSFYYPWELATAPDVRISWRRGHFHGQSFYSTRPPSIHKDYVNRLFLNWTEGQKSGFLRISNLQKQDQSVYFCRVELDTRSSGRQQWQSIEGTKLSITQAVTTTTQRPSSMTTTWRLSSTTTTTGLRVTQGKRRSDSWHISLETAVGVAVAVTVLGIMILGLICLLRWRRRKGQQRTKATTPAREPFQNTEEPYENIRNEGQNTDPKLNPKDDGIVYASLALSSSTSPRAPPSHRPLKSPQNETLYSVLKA
As to the kind of experiment: flow cytometry, MFI relative to 293 parental cells. How it is done:
(§1) Briefly, conditioned media containing antibodies were incubated with 293 cells for 30 min at 4° C., washed twice, and then detected with anti-mouse IgG Alexa 647.
On the technique in general: A flow cytometer gives signals particle by particle.

The target of experiment [2] is T2, human PILRB, ectopically expressed on 293 cells (human, UniProt Q9UKJ0 20-227).
T2 construct: also called hB
T2 sequence (Q9UKJ0 20-227): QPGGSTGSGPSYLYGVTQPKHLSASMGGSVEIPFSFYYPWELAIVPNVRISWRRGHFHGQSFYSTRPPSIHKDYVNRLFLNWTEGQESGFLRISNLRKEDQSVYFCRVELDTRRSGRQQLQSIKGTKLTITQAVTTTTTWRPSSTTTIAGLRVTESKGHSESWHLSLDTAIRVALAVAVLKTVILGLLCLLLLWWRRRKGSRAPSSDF
In words: flow cytometry, MFI relative to 293 parental cells. Here is the method: as §1

In experiment [3] the target is T3, cynomolgus PILRA, ectopically expressed on 293 cells (cynomolgus monkey). In words: flow cytometry, MFI relative to 293 parental cells. How it is done:
as §1

The target in experiment [4] is T4, murine PILRA, ectopically expressed on 293 cells (murine, UniProt Q2YFS3 32-302).
T4 construct: also called mA
T4 sequence (Q2YFS3 32-302): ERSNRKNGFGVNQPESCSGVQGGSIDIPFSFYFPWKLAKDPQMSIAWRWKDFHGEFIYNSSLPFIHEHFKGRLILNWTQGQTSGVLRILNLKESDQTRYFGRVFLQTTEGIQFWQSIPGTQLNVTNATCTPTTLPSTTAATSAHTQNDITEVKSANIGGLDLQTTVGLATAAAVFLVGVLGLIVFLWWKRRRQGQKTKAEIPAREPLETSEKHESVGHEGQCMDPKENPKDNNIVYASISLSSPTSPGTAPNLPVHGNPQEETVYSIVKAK
In words: flow cytometry, MFI relative to 293 parental cells. Here is the method: as §1

Experiment [5] deals with T5, murine PILRB, ectopically expressed on 293 cells (murine, UniProt Q2YFS2 29-224).
T5 construct: whole, on cells; also called mB
T5 sequence (Q2YFS2 29-224): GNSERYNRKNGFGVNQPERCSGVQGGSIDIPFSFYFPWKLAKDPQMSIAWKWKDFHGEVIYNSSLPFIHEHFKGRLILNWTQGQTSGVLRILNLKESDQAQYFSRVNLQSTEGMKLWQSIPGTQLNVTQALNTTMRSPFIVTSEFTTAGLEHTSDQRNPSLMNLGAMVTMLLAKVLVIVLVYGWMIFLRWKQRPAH
In words: flow cytometry, MFI relative to 293 parental cells. How it is done: as §1

The target of experiment [6] is T6, PILRA Fc (soluble human PILRA) (human, UniProt Q9UKJ1 20-197, limits assumed).
T6 construct: also called soluble PILRA; not shown: Fc part, detected with anti-human IgG
T6 sequence (Q9UKJ1 20-197 limits assumed): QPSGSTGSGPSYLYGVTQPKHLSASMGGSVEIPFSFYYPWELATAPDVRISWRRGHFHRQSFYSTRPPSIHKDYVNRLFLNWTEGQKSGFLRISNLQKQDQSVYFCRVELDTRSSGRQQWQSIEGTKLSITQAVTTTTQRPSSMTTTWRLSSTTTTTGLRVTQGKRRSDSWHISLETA
In words: flow cytometry; PILRA Fc binding to human CD3+ T cells with antibody, relative to PILRA Fc alone. Here is the method:
(§2) The ability of conditioned media samples containing antibodies to inhibit the binding of PILRA Fc to human CD3+ T cells was assessed. Briefly, conditioned media samples containing antibodies were incubated with 1.25 ug/ml PILRA Fc for 30 min at 4° C. and then added to human T cells. After 30 minutes incubation at 4° C., cells were washed, and bound PILRA Fc was detected with anti-human IgG Alexa 647. Cells were analyzed by flow cytometry on FACS Canto II, and for all cell lines, the amount of PILRA Fc binding (MIFI) and the percentage of PILRA Fc binding in the presence of conditioned media relative to PILRA Fc binding alone was calculated. Several antibodies inhibited binding of PILRA Fc to human T cells, and a few antibodies enhanced PILRA-Fc binding to T cells. Antibodies that show enhancement in this assay may block cis inhibition to promote trans interactions or may allosterically activate to enhance trans interactions without blocking cis.

The target in experiment [7] is T1, human PILRA, G78 variant, ectopically …. As to the kind of experiment: flow cytometry; NPDC1-mIgGa binding to 293 cells expressing human PILRA G78 with antibody, relative to NPDC1 Fc alone. How it is done: Conditioned media samples containing antibodies (10 ug/ml) were assessed for modulating the binding of Neural Proliferation Differentiation and Control Protein 1 (NPDC1) Fc to 293 cells ectopically expressing human PILRA. Briefly, conditioned media samples containing antibodies were incubated with 293 cells expressing human PILRA for 30 minutes at 4° C., and then 5 μg/ml NPDC1 Fc was added to this mixture. Where the antibodies were generated from phage panning, a NPDC1-hIgG1 ligand was used. Where the antibodies were generated from hybridomas, a NPDC1-mIgGa ligand was used. After 30 minutes incubation at 4° C., cells were washed and cell-bound NPDC1 Fc was detected with anti-human or mouse IgG Alexa 647. Cells were analyzed by flow cytometry on FACS Canto II, and for all cell lines, the percentage of NPDC1 Fc binding in the presence of conditioned media relative to NPDC1 Fc binding alone was calculated. Several antibodies decreased binding of NPDC1 to human PILRA, and a few antibodies enhanced ligand binding to human PILRA. Antibodies that show enhancement in this assay may block cis inhibition to promote trans interactions or may allosterically activate to enhance trans interactions without blocking cis.

For experiment [8] the target is unchanged. As to the kind of experiment: flow cytometry, 293 cells expressing target. How it is done: as §1
Experiment [9] deals with T2, human PILRB, ectopically expressed on …. In words: flow cytometry, 293 cells expressing target. How it is done:
as §1

The target of experiment [10] is T3, cynomolgus PILRA, ectopically expressed …. As to the kind of experiment: flow cytometry, 293 cells expressing target. Here is the method: as §1
The target in experiment [11] is T4, murine PILRA, ectopically expressed on …. As to the kind of experiment: flow cytometry, 293 cells expressing target. How it is done: as §1
Experiment [12] deals with T5, murine PILRB, ectopically expressed on …. In words: flow cytometry, 293 cells expressing target. Here is the method: as §1
Experiment [13] has as its target T6, PILRA Fc (soluble human PILRA). As to the kind of experiment: flow cytometry; blocking of PILRA Fc binding to human CD3+ T cells (Donor 1019). Here is the method: as §2
The target of experiment [14] is T7, human PILRA, c-term His-Avi tag (human, UniProt Q9UKJ1 20-197, limits assumed).
T7 construct: not shown: C-terminal His-Avi tag
T7 sequence (Q9UKJ1 20-197 limits assumed): as above
As to the kind of experiment: SPR (Biacore), antibody captured, PILRA as analyte. The method in brief:
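Antibodies were captured at 10 μg/ml on an anti-huFc or anti-msFc CM5 surface, and human PILRA was flowed at 33, 100 and 300 nM in HBSTE/0.5% BSA, pH 7.4. The surface was regenerated with 10 mM glycine-HCl, pH 2.1, after each analyte. Curves were double-referenced with buffer injections.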
On the technique in general: In SPR one partner is held on a chip, and binding of the other changes the refractive index at the surface.

T3 sequence (chain, as listed by the source): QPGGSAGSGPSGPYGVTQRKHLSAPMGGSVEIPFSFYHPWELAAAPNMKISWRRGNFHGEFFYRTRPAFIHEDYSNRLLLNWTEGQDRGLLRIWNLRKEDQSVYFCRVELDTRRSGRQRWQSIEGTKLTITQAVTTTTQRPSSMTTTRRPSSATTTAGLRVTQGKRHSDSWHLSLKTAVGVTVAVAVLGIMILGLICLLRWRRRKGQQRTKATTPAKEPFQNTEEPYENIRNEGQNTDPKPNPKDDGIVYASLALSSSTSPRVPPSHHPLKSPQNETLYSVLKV

B1: C8 (antibody, V domains shown)
VH: EVQLQQSGADLVKSGASVKLSCTASGFNIKDYYIHWVKQRTAQGLEWIGRITPEDGETEYAPTFQVKATITADTSSNTAYLQLNSLTSEDTAVYYCSLGDYDVSPFAYWGQGTLVTVSA
VL: DIQMTQSPASQSASLGESVTITCLASQTIGTWLAWYQQKPGKSPQLLIYAATSLADGVPSRFSGSGSGTKFSFKISSLQAEDFVSYYCQQLYSTPYTFGGGTKLEIK
notes: first hybridoma campaign
Take B1: the MFIr in experiment [1] turned out to be 44.2; in experiment [2], 1.2; in experiment [3], 0.8; in [4] it was 0.9; in experiment [5], 0.8. The “% Binding” value in experiment [6] turned out to be 33.2%; in experiment [7], 69.7%.

B2: B1 (antibody, V domains shown)
VH: DVKLVESGGGLVKLGGSLKLSCAASGFTFSSYYMSWVRQTPEKRLEWVAAINSNGDRSYYPDTVKGRFTISRDNAKNTLYLQMSSLKSEDTAFYYCASHGNYYGSPWFAYWGQGTLVTVSA
VL: ETTVTQSPASLSVATGEKVTIRCKTSTDIDDDMNWYQQKPGEPPKLLISEGNTLRPGVPSRFSSSGYGTDFVFTIENTLSEDVADYYCLQNDHMPLTFGGGTKLEIK
notes: B-cell cloning campaign (mice)
For B2, the EC50 in [8] came out at 0.96 µg/mL; in experiment [10], 2 µg/mL. The binding result in [9], in experiment [11] and in experiment [12] was “no binding” in each case. The IC50 in experiment [13] was 2.2 µg/mL.

B3: E20 (antibody, V domains shown)
VH: QIQLVQSGPELKKPGETVKISCKASGYTFTTYGMSWVKQAPGKGLKWMGWINTYSGVPTYADDFKGRFAFSLETSASTAYLQINNLKNEDTATYFCARYDGYLDYWGQGTTLTVSS
VL: DIVLTQSPASLAVSLGQRATISCKASQSVDYDGDSYMNWYQQKPGQPPKLLIYAASNLESGIPARFSGSGSGTDFTLNIHPVEEEDAATYYCQQSNEDLTFGSGTKLEIK
notes: as for B2
Molecule B3 displayed an EC50 in experiment [8] of 33.5 µg/mL. For the same molecule, the binding result in [9], in [10], in [11] and in [12] was “no binding” each time. In [13], this molecule displayed an IC50 of 5.1 µg/mL.

B4: D2 (antibody, V domains shown)
VH: QIQLGQSGPELKRPRETVKISCKASGYTFTTYGMSWVKQAPGKGLRWMGWINTHSGVPAYADDFKGRFAFSLETSANTAFLQINNLENEDTATYFCAKDYNWGMDYWGQGTSVIVSS
VL: QLVLTQSSSASFSLGASAKLTCTLSSQHSTYTIEWYQQQPLKPPKYVMEVKKDGSHSTGDGIPDRFSGSSSGADRYLSISNIQPEDEAIYICGVGDSIKEQFVYVFGGGTKVTVL
notes: second hybridoma campaign
The molecule B4 came in with an EC50 in [8] of 3.4 µg/mL. For the same molecule, the binding result in experiment [9], in experiment [10], in experiment [11] and in experiment [12] was “no binding” in each case. Moreover, the Kd in [14] is < 1.3 nM. For the same molecule, the koff in [14] is < 0.0001 s⁻¹. The kon in [14] was 75000 M⁻¹ s⁻¹. The IC50 in experiment [13] amounted to 3.3 µg/mL.

B5: C7 (antibody, V domains shown)
VH: QVQLQQSGAELARPGTSVKLSCKASGYIFTDYAISWVKQRTGQGLQWIGEIYPGSDNAYYNENFKGKATLTADKSSNTAYMELRSLTSEDSAVYFCAKWAGSLFDFWGQGTALTVSS
VL: DIVMTQSQKFMSTSVGDRVSVTCKASRNVGFNVAWYQQNPGQSPKALIYSASYRYSGVPDRFTGSGSGTDFTLTISDVQSEDLAEYFCHQYNSYPYTFGGGTKLEIR
notes: first hybridoma campaign
For B5, the MFIr in experiment [1] was 202; in experiment [2], 1.2; in [3], 0.3; in experiment [4], 0.3; in [5], 0.3. In addition, the “% Binding” value was 8.1% in experiment [6] and 35.9% in [7].

B6: E12 (antibody, V domains shown)
VH: QVQLQQSGAELAKPGASVKLSCKASGYTFTSYWIHWVKQRPGQGLEWIGYINPSSGDTEYNQKFKDKATLTADKSSNTAYMQLSSLTYEDSAVYYCARSAPDDGYYDYAMDYWGQGTSVTVSS
VL: DIVMTQSRKFMSTSVGDRVSVTCKASQNVGSNVAWYQQKPGQSPKGLTYSASYRYSGVPDRFTGSGSGTDFTLTISNVQSEDLAEYFCQQYNSYPYTFGGGTKLEIK
notes: as for B2
In the case of B6, in [8], it took 31 µg/mL to reach a half-maximal effect (EC50). Besides, the binding result in experiment [9] was “no binding”. For the same molecule, the binding result in experiment [10] was “no binding”. Moreover, in experiment [11], the binding result is recorded as “no binding”. For the same molecule, the binding result in experiment [12] is “no binding”. Moreover, in [14], binding was characterised by a dissociation constant (Kd) of 65.6 nM, the koff was determined as 0.0012 s⁻¹, the kon was determined as 18000 M⁻¹ s⁻¹ and the t½ amounted to 9.6 min. This molecule also showed an IC50 in experiment [13] of 2.2 µg/mL.

B7: D5 (antibody, V domains shown)
VH: EVKLDETGGGLVQPGRPMKLSCVASGFTFSDYWMNWVRQSPEKGLEWVAQIRNKLYNYETYYSDSVKGRFTISRDDSKSSVYLQMNNLRAEDMGIYYCTVGLAMDYWGQGTSVTVSS
VL: DIQMTQSSSSFSVSLGDRVTITCKASEDIYNRLAWYQQKPGNAPRLLISGATSLETGVPSRFSGSGSGKEYTLNITSLQTEDVATYYCQQYWSTPTFGGGTKLEIK
notes: second hybridoma campaign
On to B7, for which the response in experiment [8] was half-maximal at 1 µg/mL (EC50). Moreover, in experiment [9], the binding result is “no binding”. For the same molecule, the binding result in experiment [10] is “no binding”. Moreover, the binding result in experiment [11] was “no binding”. For the same molecule, in experiment [12], the binding result is “no binding”. For the same molecule, in experiment [14], binding was put at a Kd of 36.8 nM, the koff was determined as 0.0014 s⁻¹, the kon is 37000 M⁻¹ s⁻¹ and the t½ came out at 8.5 min. In addition, the IC50 in experiment [13] came out at 4.56 µg/mL.

B8: E13 (antibody, V domains shown)
VH: QVQLQQPGAELVMPGASVKLSCKASGYTFTRYWIHWVRQRPGQGLEWIGEIDPSDSYTNHNQKFKDKATLTVDKSSSTAYMQLSSLTSEDSAVYFCANSNYDYWGQGTTLTVSS
VL: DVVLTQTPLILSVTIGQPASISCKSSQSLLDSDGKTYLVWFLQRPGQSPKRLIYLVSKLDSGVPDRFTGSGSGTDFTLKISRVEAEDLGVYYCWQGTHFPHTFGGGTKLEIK
notes: first hybridoma campaign
On to B8, for which the MFIr in experiment [1] stood at 36.1; in experiment [2], 1.1; in experiment [3] it was 0.8; in experiment [4] it was 1; in experiment [5], 0.8. The same molecule gave a Kd in [14] of 10.5 nM. Further, the koff in experiment [14] came out at 0.0036 s⁻¹. Besides, in [14], the kon was 340000 M⁻¹ s⁻¹. The molecule also returned a t½ in experiment [14] of 3.3 min. For the same molecule, the “% Binding” value in experiment [6] was 82%; in experiment [7], 110%.

The values are drawn from patent publication US20240425587A1 (Alector, published 2024).
